The target in the test is fluorescein-labeled HMGB1 (full-length) (rat) (UniProt P63159). The test is described as follows: fluorescence polarisation. (Fluorescence polarisation rises when a labelled molecule tumbles more slowly, as on binding a larger partner.)
Sequence of UniProt P63159 (P63159 whole entry): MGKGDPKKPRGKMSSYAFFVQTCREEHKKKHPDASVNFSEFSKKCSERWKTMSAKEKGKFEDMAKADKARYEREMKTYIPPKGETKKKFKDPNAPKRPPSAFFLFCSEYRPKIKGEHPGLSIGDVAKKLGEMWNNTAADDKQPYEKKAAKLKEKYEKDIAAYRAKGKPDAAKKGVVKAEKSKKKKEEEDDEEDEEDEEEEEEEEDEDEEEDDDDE

A word on the Kd: it is the concentration at which binding is half-saturated. On to “Danio rerio TLR5-N14VLR (drTLR5) (receptor)”, for which the Kd came out at 2.9 µM.
